# According to IntAct's records for PubMed 9418872:
# B1: Tyrosine-protein phosphatase non-receptor type 1 (Homo sapiens), P18031 (parent)
# chain: MEMEKEFEQIDKSGSWAAIYQDIRHEASDFPCRVAKLPKNKNRNRYRDVSPFDHSRIKLHQEDNDYINASLIKMEEAQRSYILTQGPLPNTCGHFWEMVWEQKSRGVVMLNRVMEKGSLKCAQYWPQKEEKEMIFEDTNLKLTLISEDIKSYYTVRQLELENLTTQETREILHFHYTTWPDFGVPESPASFLNFLFKVRESGSLSPEHGPVVVHCSAGIGRSGTFCLADTCLLLMDKRKDPSSVDIKKVLLEMRKFRMGLIQTADQLRFSYLAVIEGAKFIMGDSSVQDQWKELSHEDLEPPPEHIPPPPRPPKRILEPHNGKCREFFPNHQWVKEETQEDKDCPIKEEKGSPLNAAPYGIESMSQDTEVRSRVVGGSLRGAQAASPAKGEPSLPEKDEDHALSYWKPFLVNMCVATVLTAGAYLCYRFLFNSNT
# partner: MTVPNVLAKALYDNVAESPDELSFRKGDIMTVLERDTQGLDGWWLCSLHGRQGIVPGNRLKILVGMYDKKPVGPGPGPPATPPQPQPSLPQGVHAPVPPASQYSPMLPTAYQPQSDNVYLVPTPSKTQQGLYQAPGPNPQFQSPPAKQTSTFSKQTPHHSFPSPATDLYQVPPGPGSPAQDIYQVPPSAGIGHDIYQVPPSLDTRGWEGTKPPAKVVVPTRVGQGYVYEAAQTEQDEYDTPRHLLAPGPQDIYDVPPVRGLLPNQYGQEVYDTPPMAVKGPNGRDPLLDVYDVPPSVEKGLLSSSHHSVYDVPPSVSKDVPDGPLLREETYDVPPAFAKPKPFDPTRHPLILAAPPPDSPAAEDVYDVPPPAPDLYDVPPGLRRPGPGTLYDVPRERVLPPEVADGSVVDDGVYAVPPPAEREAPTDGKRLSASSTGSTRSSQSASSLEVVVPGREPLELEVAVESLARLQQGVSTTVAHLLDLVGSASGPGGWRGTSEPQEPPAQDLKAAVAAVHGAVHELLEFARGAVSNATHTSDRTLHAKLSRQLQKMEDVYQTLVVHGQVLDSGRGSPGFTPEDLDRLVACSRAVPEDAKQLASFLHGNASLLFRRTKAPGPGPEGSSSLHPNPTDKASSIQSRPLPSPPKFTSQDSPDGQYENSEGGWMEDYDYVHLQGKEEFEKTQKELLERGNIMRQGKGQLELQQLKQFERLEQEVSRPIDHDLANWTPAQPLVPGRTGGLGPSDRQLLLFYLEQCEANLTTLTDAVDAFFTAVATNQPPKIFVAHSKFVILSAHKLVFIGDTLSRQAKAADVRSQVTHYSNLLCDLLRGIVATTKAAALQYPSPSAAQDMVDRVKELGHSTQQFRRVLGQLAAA
# B2: Tyrosine-protein phosphatase non-receptor type 1 (Homo sapiens), P18031 (parent)
# chain: B1 chain
# Variants of: B1
# Conditions: with bcar1_mouse Bcar1, Q61140
row,Variant,effect of a mutation on the interaction
1,MEMEKEFEQIDKSGSWAAIYQDIRHEASDFPCRVAKLPKNKNRNRYRDVSPFDHSRIKLHQEDNDYINASLIKMEEAQRSYILTQGPLPNTCGHFWEMVWEQKSRGVVMLNRVMEKGSLKCAQYWPQKEEKEMIFEDTNLKLTLISEDIKSYYTVRQLELENLTTQETREILHFHYTTWPDFGVPESPASFLNFLFKVRESGSLSPEHGPVVVHCSAGIGRSGTFCLADTCLLLMDKRKDPSSVDIKKVLLEMRKFRMGLIQTADQLRFSYLAVIEGAKFIMGDSSVQDQWKELSHEDLEPPPEHIPPAPRPPKRILEPHNGKCREFFPNHQWVKEETQEDKDCPIKEEKGSPLNAAPYGIESMSQDTEVRSRVVGGSLRGAQAASPAKGEPSLPEKDEDHALSYWKPFLVNMCVATVLTAGAYLCYRFLFNSNT [P309A],disrupting interaction
2,MEMEKEFEQIDKSGSWAAIYQDIRHEASDFPCRVAKLPKNKNRNRYRDVSPFDHSRIKLHQEDNDYINASLIKMEEAQRSYILTQGPLPNTCGHFWEMVWEQKSRGVVMLNRVMEKGSLKCAQYWPQKEEKEMIFEDTNLKLTLISEDIKSYYTVRQLELENLTTQETREILHFHYTTWPDFGVPESPASFLNFLFKVRESGSLSPEHGPVVVHCSAGIGRSGTFCLADTCLLLMDKRKDPSSVDIKKVLLEMRKFRMGLIQTADQLRFSYLAVIEGAKFIMGDSSVQDQWKELSHEDLEPPPEHIPPPARPPKRILEPHNGKCREFFPNHQWVKEETQEDKDCPIKEEKGSPLNAAPYGIESMSQDTEVRSRVVGGSLRGAQAASPAKGEPSLPEKDEDHALSYWKPFLVNMCVATVLTAGAYLCYRFLFNSNT [P310A],disrupting interaction

# Variants of: B1
# Conditions: with bcar1_mouse Bcar1, Q61140
# Remark: another data set of the same source
row,Variant,effect of a mutation on the interaction
1,MEMEKEFEQIDKSGSWAAIYQDIRHEASDFPCRVAKLPKNKNRNRYRDVSPFDHSRIKLHQEDNDYINASLIKMEEAQRSYILTQGPLPNTCGHFWEMVWEQKSRGVVMLNRVMEKGSLKCAQYWPQKEEKEMIFEDTNLKLTLISEDIKSYYTVRQLELENLTTQETREILHFHYTTWPDFGVPESPASFLNFLFKVRESGSLSPEHGPVVVHSSAGIGRSGTFCLADTCLLLMDKRKDPSSVDIKKVLLEMRKFRMGLIQTADQLRFSYLAVIEGAKFIMGDSSVQDQWKELSHEDLEPPPEHIPPPPRPPKRILEPHNGKCREFFPNHQWVKEETQEDKDCPIKEEKGSPLNAAPYGIESMSQDTEVRSRVVGGSLRGAQAASPAKGEPSLPEKDEDHALSYWKPFLVNMCVATVLTAGAYLCYRFLFNSNT [C215S],disrupting interaction

# Variants of: B2
# Conditions: with paxi_mouse Pxn
row,Variant,effect of a mutation on the interaction
1,MEMEKEFEQIDKSGSWAAIYQDIRHEASDFPCRVAKLPKNKNRNRYRDVSPFDHSRIKLHQEDNDYINASLIKMEEAQRSYILTQGPLPNTCGHFWEMVWEQKSRGVVMLNRVMEKGSLKCAQYWPQKEEKEMIFEDTNLKLTLISEDIKSYYTVRQLELENLTTQETREILHFHYTTWPDFGVPESPASFLNFLFKVRESGSLSPEHGPVVVHSSAGIGRSGTFCLADTCLLLMDKRKDPSSVDIKKVLLEMRKFRMGLIQTADQLRFSYLAVIEGAKFIMGDSSVQDQWKELSHEDLEPPPEHIPPPPRPPKRILEPHNGKCREFFPNHQWVKEETQEDKDCPIKEEKGSPLNAAPYGIESMSQDTEVRSRVVGGSLRGAQAASPAKGEPSLPEKDEDHALSYWKPFLVNMCVATVLTAGAYLCYRFLFNSNT [C215S],disrupting interaction

# Variants of: B2
# Conditions: with fak1_mouse Ptk2, P34152
# fak1_mouse Ptk2, P34152, sequence (P34152 whole entry): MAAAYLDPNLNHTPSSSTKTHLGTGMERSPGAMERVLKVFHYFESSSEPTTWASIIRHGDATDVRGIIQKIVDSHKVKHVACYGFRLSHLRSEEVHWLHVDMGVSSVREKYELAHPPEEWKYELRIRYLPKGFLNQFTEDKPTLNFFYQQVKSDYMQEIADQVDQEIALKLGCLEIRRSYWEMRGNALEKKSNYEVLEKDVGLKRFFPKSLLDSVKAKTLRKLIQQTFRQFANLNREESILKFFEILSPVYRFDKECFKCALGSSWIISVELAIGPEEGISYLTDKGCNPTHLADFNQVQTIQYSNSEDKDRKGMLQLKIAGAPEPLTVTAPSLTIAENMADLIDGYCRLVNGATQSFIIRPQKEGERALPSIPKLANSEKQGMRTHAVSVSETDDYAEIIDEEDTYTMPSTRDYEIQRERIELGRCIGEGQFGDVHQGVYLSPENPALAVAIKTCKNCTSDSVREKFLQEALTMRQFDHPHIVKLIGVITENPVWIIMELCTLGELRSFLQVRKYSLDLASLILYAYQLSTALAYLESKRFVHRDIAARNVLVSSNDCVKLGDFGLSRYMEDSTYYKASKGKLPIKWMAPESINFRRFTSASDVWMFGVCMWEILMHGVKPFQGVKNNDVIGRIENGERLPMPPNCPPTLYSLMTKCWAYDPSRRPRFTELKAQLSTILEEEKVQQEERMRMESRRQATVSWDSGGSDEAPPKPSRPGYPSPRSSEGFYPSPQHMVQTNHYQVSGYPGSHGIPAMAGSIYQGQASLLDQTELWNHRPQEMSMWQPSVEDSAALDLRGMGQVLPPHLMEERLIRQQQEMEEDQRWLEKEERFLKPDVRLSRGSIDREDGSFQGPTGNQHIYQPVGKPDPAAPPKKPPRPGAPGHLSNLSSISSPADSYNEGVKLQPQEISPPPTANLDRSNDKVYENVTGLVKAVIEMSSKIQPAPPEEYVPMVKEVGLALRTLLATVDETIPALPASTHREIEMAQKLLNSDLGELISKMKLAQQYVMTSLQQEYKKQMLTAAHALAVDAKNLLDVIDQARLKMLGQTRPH
row,Variant,effect of a mutation on the interaction
1,MEMEKEFEQIDKSGSWAAIYQDIRHEASDFPCRVAKLPKNKNRNRYRDVSPFDHSRIKLHQEDNDYINASLIKMEEAQRSYILTQGPLPNTCGHFWEMVWEQKSRGVVMLNRVMEKGSLKCAQYWPQKEEKEMIFEDTNLKLTLISEDIKSYYTVRQLELENLTTQETREILHFHYTTWPDFGVPESPASFLNFLFKVRESGSLSPEHGPVVVHSSAGIGRSGTFCLADTCLLLMDKRKDPSSVDIKKVLLEMRKFRMGLIQTADQLRFSYLAVIEGAKFIMGDSSVQDQWKELSHEDLEPPPEHIPPPPRPPKRILEPHNGKCREFFPNHQWVKEETQEDKDCPIKEEKGSPLNAAPYGIESMSQDTEVRSRVVGGSLRGAQAASPAKGEPSLPEKDEDHALSYWKPFLVNMCVATVLTAGAYLCYRFLFNSNT [C215S],disrupting interaction
